According to patent US20160053025A1 (SAMSUNG ELECTRONICS, published 2016):
Changes are numbered by the printed parent chain.

Assays:
Assay in all cases: ELISA, antibody coated, FLAG-tagged mutant Ang2 RBD detected with anti-FLAG-HRP
[1] = biological target: T1, Ang2 RBD P419A, FLAG-tagged (human, UniProt O15123 281-496, limits assumed)
T1 chain: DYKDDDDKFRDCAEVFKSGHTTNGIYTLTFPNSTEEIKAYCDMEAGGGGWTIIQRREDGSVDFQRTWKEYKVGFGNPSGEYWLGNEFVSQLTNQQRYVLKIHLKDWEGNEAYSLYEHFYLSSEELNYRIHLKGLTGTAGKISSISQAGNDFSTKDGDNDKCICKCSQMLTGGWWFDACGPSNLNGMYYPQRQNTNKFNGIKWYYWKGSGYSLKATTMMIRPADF
Protocol: (§1) To verify the epitope (or specific binding site) of the anti-Ang2 antibody prepared in Reference Example 2.3, an ELISA was performed using a recombinant protein where a receptor binding domain (RBD) of Ang2 protein in the form of being tagged with Flag was mutated by artificial means.
(§2) Each well of a 96-well MaxiSorp™ flat-bottom plate (Nunc) was coated with 50 ul (microliter) of 1000 nM antibody. Then, the plate was washed five times with 0.05% (v/v) Tween-20-containing PBS (PBST) and blocked with 1% (v/v) BSA-containing PBS at a room temperature for 2 hours. 250 ng of each mutant Ang2 protein obtained by substituting S417, Q418, P419, N421, 1434, D448, A449, P452, Y460, N467, K468, or F469 residue of Ang2 protein tagged with a FLAG sequence ([…], Sigma) at its N-terminal with alanine was added to each well of the plate, which was then allowed to react at a room temperature for 2 hours.
(§3) Finally, 50 ul of TMB substrates (Cell signaling) was added to each well of the plate to induce color development at a room temperature for 3 min. and the reaction was ceased by the addition of 50 ul of Stop solution (Cell signaling) and then, OD450 values were measured on a plate reader (Molecular Devices). By comparing binding affinities with mutated Ang2 to those of unmutated Ang2, each epitope of Ang2 antibodies was identified. The obtained measurement results of the binding affinities (%) with mutant Ang2 against the binding affinity with the native Ang2 are shown in the following Table 13.

[2] = biological target: T2, Ang2 RBD N421A, FLAG-tagged (human, UniProt O15123 281-496, limits assumed)
T2 chain: T1 chain with A147P, N149A
Protocol: as §1, §2, §3

[3] = biological target: T3, Ang2 RBD D448A, FLAG-tagged (human, UniProt O15123 281-496, limits assumed)
T3 chain: T1 chain with A147P, D176A
Protocol: as §1, §2, §3

[4] = biological target: T4, Ang2 RBD Y460A, FLAG-tagged (human, UniProt O15123 281-496, limits assumed)
T4 chain: T1 chain with A147P, Y188A
Protocol: as §1, §2, §3

[5] = biological target: T5, Ang2 RBD N467A, FLAG-tagged (human, UniProt O15123 281-496, limits assumed)
T5 chain: T1 chain with A147P, N195A
Protocol: as §1, §2, §3

[6] = biological target: T6, Ang2 RBD K468A, FLAG-tagged (human, UniProt O15123 281-496, limits assumed)
T6 chain: T1 chain with A147P, K196A
Protocol: as §1, §2, §3

[7] = biological target: T7, Ang2 RBD S417A, FLAG-tagged (human, UniProt O15123 281-496, limits assumed)
T7 chain: T1 chain with S145A, A147P
Protocol: as §1, §2, §3

B1: SAIT-ANG2-AB-m10D6 (antibody, V domains shown)
VH: DVQLQESGPDLVKPSQSLSLTCTVTGYSITSDYAWNWIRQFPGNKLEWMGYINYSGNTDYNPSLKSRSSITRDTSKNQFFLQLNSVTTGDTATYYCARGNFEGAMDYWGQGTSVTVSS
VL: SIVMTQTPKFLLVSAGDRVTITCKASQSVSNDVAWYQQKPGQSPKLLIYYASNRYPGVPDRFTGSGYGTDFTFTISTVQAEDLAVYFCQQDYSSPWTFGGGTKLEIK
notes: Mouse monoclonal antibody purified from a hybridoma (KCLRF-BP-00295); it is not applied here; also called mouse antibody 10D6; 10D6 antibody
binding affinity (%) with mutant Ang2 against the binding affinity with the native Ang2 [1]: 41.1%
binding affinity (%) with mutant Ang2 against the binding affinity with the native Ang2 [2]: 109%
binding affinity (%) with mutant Ang2 against the binding affinity with the native Ang2 [3]: 105%
binding affinity (%) with mutant Ang2 against the binding affinity with the native Ang2 [4]: 103%
binding affinity (%) with mutant Ang2 against the binding affinity with the native Ang2 [5]: 107%
binding affinity (%) with mutant Ang2 against the binding affinity with the native Ang2 [6]: 110%
binding affinity (%) with mutant Ang2 against the binding affinity with the native Ang2 [7]: 101%
